{"source": "paper doi:10.1101/2022.09.14.507982", "target": "F-actin (filamentous actin from rabbit muscle) (rabbit) (UniProt P68135)", "test": "co-sedimentation"}
{"substance": "Ig3 domain of palladin (domain or fragment)", "values": [{"measurement": "Kd", "result": 3.42, "unit": "µM"}]}
